Reference: patent US20090196872A1 (KIRIN BEER, published 2009)

molecular target: T1, M2 protein expressed on A/PR/8/34 infected MDCK cells (influenza A virus A/PR/8/34, UniProt P06821 1-97); experiment: cell-based ELISA, half-saturating antibody concentration
T1 construct: whole, on cells
T1 sequence (P06821 whole entry): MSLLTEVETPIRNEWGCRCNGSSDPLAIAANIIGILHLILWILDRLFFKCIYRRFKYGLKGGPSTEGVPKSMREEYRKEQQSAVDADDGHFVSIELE

| Binder | Kd |
| --- | --- |
| human anti-M2 monoclonal antibody C40G1 (antibody, V domains shown) VH: QLQLQESGPGLVKPSETLSLTCTVSGGSISSSFYYCGWIRQPPGKGLEWIGSIYYRGSTYYNPSLKSRVTISVDTSKNQFSLKLSSVTAADTAVYYCARRVTMVRGVKGDYFDYWGQGTLVTVSS VL: DIQMTQSPSSLSASVGDRVTITCRASQGISSWLAWYQQKPEKVPKSLIYAASSLQSGVPSRFSGSGSGTDFTLTISSLQPEDFATYYCQQYNYYPLTFGGGTKVEIKR | 519 pM |
| human anti-M2 monoclonal antibody N547 (antibody, V domains shown) VH: not shown VL: QSVLTQPPSMSAAPGQKVTISCSGSSSNIGNNYISWYQQLPGTAPKVLIYDNNKRPSGIPDRFSGSKSGTSATLGITGLQTGDEADYYCGSWDSSLSAGVFGTGTKVTVLG | 1050 pM |
| human anti-M2 monoclonal antibody L66 (antibody, V domains shown) VH: EVQLVESGGGVVRPGGSLRLSCAASGFTFDDYGMSWVRQAPGKGLEWVSGINWNGGSTGYADSVKGRFTISRDNAKNSLYLQMNSLRAEDTALYYCARDRVTMVRGVIMDYYGMDVWGQGTTVTVSS VL: QTVVTQEPSLTVSPRGTVTLTCSSSTGAVTSGYYPGWFQLKPGQAPMSLIYSARKKHSWTPARFSGSLLGGKAALTLSGVQPEDEAEYYCLLYYGGAYVFGTGTKVTVLG | 563 pM |
| human anti-M2 monoclonal antibody no. Z3G1 (recombinant IgG1 type Z3, CHO; ATCC PTA-5967) (antibody, V domains shown) VH: QVQLVQSGAEVKKPGASVKVSCKASGYTFTSYGISWVRQAPGQGLEWMGWISAYNGNTNYAQKLQGRVTMTTDTSTSTAYMELRSLRSDDTAVYYCARAAAGGYFQHWGQGTLVTVSS VL: not shown | 497 pM |
